From patent US6906033 (dated 2005)
Changes are numbered by the printed parent chain.

T1: human factor XIIa (human, UniProt P00748 20-615, biotinylated with Biotin Ester (Zymed); sites not stated)
T1 chain: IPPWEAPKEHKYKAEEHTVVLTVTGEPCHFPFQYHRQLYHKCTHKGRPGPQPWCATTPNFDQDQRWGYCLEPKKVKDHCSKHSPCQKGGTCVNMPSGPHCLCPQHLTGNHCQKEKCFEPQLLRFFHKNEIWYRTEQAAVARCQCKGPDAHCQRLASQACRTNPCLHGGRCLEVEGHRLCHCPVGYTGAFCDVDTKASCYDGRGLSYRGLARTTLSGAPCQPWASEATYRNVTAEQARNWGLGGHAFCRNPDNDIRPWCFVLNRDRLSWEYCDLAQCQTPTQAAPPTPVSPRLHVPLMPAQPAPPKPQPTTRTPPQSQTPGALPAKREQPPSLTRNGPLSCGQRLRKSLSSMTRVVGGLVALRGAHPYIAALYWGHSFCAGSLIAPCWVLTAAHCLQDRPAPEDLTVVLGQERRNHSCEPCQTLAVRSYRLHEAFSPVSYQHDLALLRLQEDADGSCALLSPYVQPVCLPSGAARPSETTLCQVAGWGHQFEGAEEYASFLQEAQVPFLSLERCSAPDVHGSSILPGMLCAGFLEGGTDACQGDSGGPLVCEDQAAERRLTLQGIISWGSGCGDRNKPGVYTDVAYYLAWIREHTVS

T2: human factor Xa (human, UniProt P00742 41-179; P00742 235-488)
T2 chain 1: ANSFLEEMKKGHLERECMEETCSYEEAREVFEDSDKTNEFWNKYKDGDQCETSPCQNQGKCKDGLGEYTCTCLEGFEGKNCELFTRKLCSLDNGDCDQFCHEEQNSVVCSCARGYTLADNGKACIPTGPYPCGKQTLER
T2 chain 2: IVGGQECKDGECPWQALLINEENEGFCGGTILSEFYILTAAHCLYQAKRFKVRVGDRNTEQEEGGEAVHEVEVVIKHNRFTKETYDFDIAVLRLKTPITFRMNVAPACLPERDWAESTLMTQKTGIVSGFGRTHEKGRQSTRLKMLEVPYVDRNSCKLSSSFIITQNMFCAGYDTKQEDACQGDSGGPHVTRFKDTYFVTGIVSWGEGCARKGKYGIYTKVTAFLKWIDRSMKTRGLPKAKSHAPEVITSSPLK

B1: TW6165 (protein)
chain: EVVREVCSEQAETGPCRAAIWRWYFDVTEGKCAPFFYGGCGGNRNNFDTEEYCMAVCGSAI
B2: BG028 (protein)
chain: B1 chain with A19L, W21Y
B3: TW6166 (protein)
chain: B1 chain with W21Y
B4: TW6149 (protein)
chain: B1 chain with A19M, W21S, R44A
B5: TW6148 (protein)
chain: B1 chain with A19M, W21S, N43A
B6: TW124 (protein)
chain: EVCSEQAETGPCRAMISRWYFDVTEGKCAPFFYGGCGGNSNNFDTEEYCMAVCGSAI
B7: TW6163 (protein)
chain: B1 chain with A19M, I20H, W21S
B8: TW6210 (protein)
chain: B1 chain with A19M, W21Q
B9: BG012 (protein)
chain: B1 chain with A19M, W21S, R22T
B10: TW6180 (protein)
chain: B1 chain with A19M, I20F, W21S
B11: TW6168 (protein)
chain: B1 chain with A19M, W21L
B12: DD102 (protein)
chain: B1 chain with A19M, W21P
B13: DD104 (protein)
chain: B1 chain with A19M, W21Y
B14: CL006 (protein)
chain: B1 chain with A19M, W21S, R22A
B15: DD103 (protein)
chain: B1 chain with A19M, W21F
B16: BG001 (protein)
chain: B1 chain with A19M, I20L, W21S
B17: TW6182 (protein)
chain: B1 chain with A19M, W21H
B18: DD105 (protein)
chain: B1 chain with A19M
B19: TW6181 (protein)
chain: B1 chain with A19M, I20K, W21S
B20: TW6194 (protein)
chain: B1 chain with A19M, W21E
B21: TW6172 (protein)
chain: B1 chain with A19M, I20A, W21S
B22: TW116 (protein)
chain: B6 chain with S17I, S40R
B23: TW6154 (protein)
chain: B1 chain with A19M, W21S, G41L
B24: TW6140 (protein)
chain: B1 chain with A19M, W21S, G41N
B25: TW6142 (protein)
chain: B1 chain with A19M, W21S, F36V
B26: TW6157 (protein)
chain: B1 chain with A19M, W21S, G41S
B27: TW6211 (protein)
chain: B1 chain with A19M, W21S, R22K
B28: TW6209 (protein)
chain: B1 chain with A19M, W21S, R22H
B29: AL301 (protein)
chain: B1 chain with A19M, W21S, F36L
B30: TW6138 (protein)
chain: B1 chain with A19M, W21S, G41K
B31: TW118 (protein)
chain: B6 chain with G37R, S40R
B32: TW6155 (protein)
chain: B1 chain with A19M, W21S, G41M
B33: DD128 (protein)
chain: B1 chain with A19M, W21S, R22L
B34: AL302 (protein)
chain: B1 chain with A19M, W21S, F36G
B35: TW6141 (protein)
chain: B1 chain with A19M, W21S, G41Q
B36: DD100 (protein)
chain: B1 chain with A19M, W21S, G41C
B37: TW6158 (protein)
chain: B1 chain with A19M, W21S, G41T
B38: DD111 (protein)
chain: B1 chain with A19S, W21S
B39: TW101 (protein)
chain: B6 chain with R13K, S40R
B40: TW106 (protein)
chain: B6 chain with M15R, S40R

Biological target: T1, human factor XIIa
Experiment: enzyme inhibition

Point of comparison: B1, Ki 206 nM. Against it:
- B2 — 2.2-fold lower, 93.8 nM
- B3 — 2.8-fold lower, 73 nM

biological target: T3, human plasma kallikrein (human, UniProt P03952 20-638); experiment: enzyme inhibition
T3 sequence (P03952 20-638): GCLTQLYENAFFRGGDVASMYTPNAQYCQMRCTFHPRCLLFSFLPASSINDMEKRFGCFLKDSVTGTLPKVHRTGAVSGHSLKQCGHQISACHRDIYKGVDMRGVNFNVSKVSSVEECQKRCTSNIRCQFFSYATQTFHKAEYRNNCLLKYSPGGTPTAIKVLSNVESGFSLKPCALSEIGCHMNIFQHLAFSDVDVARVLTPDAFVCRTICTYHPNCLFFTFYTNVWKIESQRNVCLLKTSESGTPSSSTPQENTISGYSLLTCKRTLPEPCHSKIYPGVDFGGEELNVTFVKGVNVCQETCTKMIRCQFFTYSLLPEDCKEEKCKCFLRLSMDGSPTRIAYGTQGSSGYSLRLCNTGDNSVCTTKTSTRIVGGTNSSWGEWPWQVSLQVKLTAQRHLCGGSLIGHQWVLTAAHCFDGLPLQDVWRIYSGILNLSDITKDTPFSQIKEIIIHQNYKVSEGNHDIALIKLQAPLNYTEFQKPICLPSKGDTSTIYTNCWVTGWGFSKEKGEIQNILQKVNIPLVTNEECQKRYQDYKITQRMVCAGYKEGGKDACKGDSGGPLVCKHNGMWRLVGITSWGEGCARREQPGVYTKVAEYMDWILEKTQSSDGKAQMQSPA

Point of comparison: B6, Ki 64 nM. Against it:
- B4 — within 1.5-fold, 54 nM
- B5 — 1.6-fold lower, 40 nM

Biological target: T1, human factor XIIa
Experiment: enzyme inhibition
Remark: another data set of the same source

Point of comparison: B7, Ki 4530 nM. Against it:
- B8 — 16-fold lower, 277 nM
- B9 — 110-fold lower, 40 nM
- B10 — 5.1-fold lower, 885 nM
- B11 — within 1.5-fold, 3520 nM
- B12 — 14-fold lower, 315 nM
- B13 — 19-fold lower, 237 nM
- B14 — 20-fold higher, 89600 nM
- B15 — 2.1-fold lower, 2130 nM
- B16 — 9.3-fold lower, 489 nM
- B17 — 6-fold lower, 752 nM
- B18 — 23-fold lower, 198 nM
- B19 — 3-fold lower, 1510 nM

biological target: T3, human plasma kallikrein; experiment: enzyme inhibition; remark: another data set of the same source

Point of comparison: B20, Ki 70.8 nM. Against it:
- B7 — 15-fold lower, 4.7 nM
- B8 — within 1.5-fold, 54 nM
- B10 — within 1.5-fold, 70 nM
- B11 — 2.7-fold lower, 25.8 nM
- B12 — 4.4-fold lower, 16 nM
- B13 — 4.7-fold lower, 15 nM
- B21 — 4.4-fold higher, 315 nM
- B14 — 1.6-fold higher, 110 nM
- B15 — 4.2-fold lower, 17 nM
- B16 — 1.9-fold lower, 38 nM
- B17 — 2-fold lower, 36 nM
- B18 — 3.9-fold lower, 18 nM
- B19 — 2.1-fold higher, 150 nM
- B22 — 2-fold higher, 145 nM

Biological target: T2, human factor Xa
Experiment: enzyme inhibition

Point of comparison: B18, Ki 320 nM. Against it:
- B7 — within 1.5-fold, 457 nM
- B9 — 2.8-fold lower, 116 nM
- B10 — 8.2-fold lower, 39 nM
- B11 — within 1.5-fold, 395 nM
- B13 — within 1.5-fold, 345 nM
- B21 — 4.6-fold higher, 1460 nM
- B14 — 2.4-fold lower, 133 nM
- B15 — 2.9-fold lower, 110 nM
- B16 — 1.6-fold lower, 204 nM
- B22 — 2.5-fold higher, 806 nM

Biological target: T1, human factor XIIa
Experiment: enzyme inhibition
Remark: another data set of the same source

Point of comparison: B31, Ki 13000 nM. Against it:
- B23 — 14-fold lower, 915 nM
- B24 — 27-fold lower, 475 nM
- B25 — 1.6-fold lower, 7970 nM
- B26 — 25-fold lower, 511 nM
- B27 — 32-fold lower, 402 nM
- B28 — 71-fold lower, 184 nM
- B29 — 8.3-fold lower, 1560 nM
- B30 — 14-fold lower, 921 nM

biological target: T3, human plasma kallikrein; experiment: enzyme inhibition; remark: another data set of the same source

Point of comparison: B23, Ki 11 nM. Against it:
- B24 — 3.2-fold higher, 35 nM
- B32 — the same, 11 nM
- B33 — 4-fold higher, 44 nM
- B25 — 1.6-fold higher, 18 nM
- B34 — 3.5-fold higher, 39 nM
- B26 — 3.6-fold higher, 40 nM
- B35 — 3.8-fold higher, 42 nM
- B27 — 17-fold higher, 184 nM
- B28 — 7.4-fold higher, 81 nM
- B36 — within 1.5-fold, 15 nM
- B29 — 20-fold higher, 216 nM
- B37 — 2.6-fold higher, 29 nM
- B30 — 1.6-fold higher, 18 nM
- B31 — 1.8-fold lower, 6 nM

Biological target: T2, human factor Xa
Experiment: enzyme inhibition
Remark: another data set of the same source

Point of comparison: B28, Ki 613 nM. Against it:
- B23 — 16-fold lower, 39 nM
- B32 — 23-fold lower, 27 nM
- B33 — 17-fold lower, 37 nM
- B25 — 2.7-fold lower, 225 nM
- B34 — 1.9-fold lower, 316 nM
- B26 — 3.6-fold lower, 168 nM
- B30 — 2-fold lower, 309 nM
- B31 — 9-fold lower, 68 nM

biological target: T3, human plasma kallikrein; experiment: enzyme inhibition; remark: another data set of the same source

Point of comparison: B39, Ki 2000 nM. Against it:
- B38 — 360-fold lower, 5.6 nM
- B40 — 3.6-fold lower, 560 nM
